Assay results as given in patent publication US20220204643A1 (published 2022).

Tests used:
Test in all cases: protein array
[1] = biological target: T1, hydroxymethylbilane synthase, transcript variant X3 (human, UniProt P08397 18-361)
T1 construct: on protein array; also called HMBS; IAMBS
T1 sequence: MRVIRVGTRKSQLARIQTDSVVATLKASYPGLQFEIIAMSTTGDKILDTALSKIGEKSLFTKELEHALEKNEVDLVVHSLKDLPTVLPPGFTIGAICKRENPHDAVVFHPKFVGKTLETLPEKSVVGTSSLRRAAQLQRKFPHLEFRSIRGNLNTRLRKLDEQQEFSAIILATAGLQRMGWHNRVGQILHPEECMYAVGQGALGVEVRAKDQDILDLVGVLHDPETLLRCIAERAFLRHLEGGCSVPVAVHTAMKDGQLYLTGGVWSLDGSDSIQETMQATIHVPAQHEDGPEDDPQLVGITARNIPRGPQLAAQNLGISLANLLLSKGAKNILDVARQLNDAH

[2] = biological target: T2, hook microtubule tethering protein 2, transcript variant 2 (human, UniProt Q96ED9 1-719)
T2 construct: on protein array; also called HOOK2
T2 sequence: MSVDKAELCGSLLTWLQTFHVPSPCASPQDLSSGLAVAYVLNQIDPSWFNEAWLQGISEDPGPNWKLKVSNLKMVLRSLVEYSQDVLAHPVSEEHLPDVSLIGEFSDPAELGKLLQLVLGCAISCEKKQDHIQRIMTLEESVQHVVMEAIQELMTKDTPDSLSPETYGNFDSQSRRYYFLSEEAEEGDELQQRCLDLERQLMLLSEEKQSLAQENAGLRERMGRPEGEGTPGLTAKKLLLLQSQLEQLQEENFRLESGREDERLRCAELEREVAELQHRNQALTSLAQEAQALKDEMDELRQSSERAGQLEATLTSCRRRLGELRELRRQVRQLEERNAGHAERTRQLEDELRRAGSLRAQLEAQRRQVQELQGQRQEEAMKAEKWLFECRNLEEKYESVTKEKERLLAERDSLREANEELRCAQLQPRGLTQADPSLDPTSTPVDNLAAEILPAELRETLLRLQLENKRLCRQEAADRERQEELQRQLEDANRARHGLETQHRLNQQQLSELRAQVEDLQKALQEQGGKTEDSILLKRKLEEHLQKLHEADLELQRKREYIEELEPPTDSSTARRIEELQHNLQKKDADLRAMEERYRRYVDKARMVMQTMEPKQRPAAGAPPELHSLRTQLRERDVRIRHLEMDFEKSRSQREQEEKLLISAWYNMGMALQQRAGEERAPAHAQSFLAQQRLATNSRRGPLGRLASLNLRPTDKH

[3] = biological target: T3, RAN binding protein 10, transcript variant 1 (human, UniProt Q6VN20 2-620)
T3 construct: on protein array; also called RANBP10

ubiquilin 2 = biological target: T4, ubiquilin 2 (human, UniProt Q9UHD9 2-624)
T4 construct: on protein array; also called UBQLN2

Ubiquilin 3 = biological target: T5, Ubiquilin 3 (human, UniProt Q9H347 1-655)
T5 construct: on protein array; also called UBQLN3
T5 sequence: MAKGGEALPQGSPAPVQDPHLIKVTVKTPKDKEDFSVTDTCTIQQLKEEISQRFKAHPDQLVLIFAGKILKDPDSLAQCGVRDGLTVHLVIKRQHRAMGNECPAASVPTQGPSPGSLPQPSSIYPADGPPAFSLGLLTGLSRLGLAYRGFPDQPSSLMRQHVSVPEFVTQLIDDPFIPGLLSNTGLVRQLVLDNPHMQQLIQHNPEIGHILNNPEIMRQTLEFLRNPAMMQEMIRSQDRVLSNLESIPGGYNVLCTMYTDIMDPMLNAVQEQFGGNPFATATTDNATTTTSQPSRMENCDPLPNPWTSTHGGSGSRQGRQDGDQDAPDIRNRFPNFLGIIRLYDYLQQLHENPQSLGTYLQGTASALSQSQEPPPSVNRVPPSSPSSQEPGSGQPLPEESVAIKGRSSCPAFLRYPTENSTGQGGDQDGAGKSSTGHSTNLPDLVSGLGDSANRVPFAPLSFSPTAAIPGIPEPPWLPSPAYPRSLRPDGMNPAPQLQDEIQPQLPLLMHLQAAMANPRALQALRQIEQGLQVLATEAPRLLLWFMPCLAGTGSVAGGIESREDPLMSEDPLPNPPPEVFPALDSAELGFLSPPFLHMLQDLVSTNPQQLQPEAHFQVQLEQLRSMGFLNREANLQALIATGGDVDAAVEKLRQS

[4] = biological target: T6, ubiquilin 1, transcript variant 2 (human, UniProt Q9UMX0 2-589)
T6 construct: on protein array; also called UBQLN1

[5] = biological target: T7, anterior gradient 3, protein disulphide isomerase family member (human, UniProt Q8TD06 22-166)
T7 construct: on protein array; also called AGR3
T7 sequence: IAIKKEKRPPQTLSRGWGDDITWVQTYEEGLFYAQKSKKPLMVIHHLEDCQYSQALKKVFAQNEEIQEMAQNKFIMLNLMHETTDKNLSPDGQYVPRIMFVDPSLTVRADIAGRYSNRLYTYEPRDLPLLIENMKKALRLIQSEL

[6] = biological target: T8, microtubule associated scaffold protein 2, transcript variant 2 (human, UniProt Q5JR59 1040-1369)
T8 construct: on protein array; also called MTUS2
T8 sequence: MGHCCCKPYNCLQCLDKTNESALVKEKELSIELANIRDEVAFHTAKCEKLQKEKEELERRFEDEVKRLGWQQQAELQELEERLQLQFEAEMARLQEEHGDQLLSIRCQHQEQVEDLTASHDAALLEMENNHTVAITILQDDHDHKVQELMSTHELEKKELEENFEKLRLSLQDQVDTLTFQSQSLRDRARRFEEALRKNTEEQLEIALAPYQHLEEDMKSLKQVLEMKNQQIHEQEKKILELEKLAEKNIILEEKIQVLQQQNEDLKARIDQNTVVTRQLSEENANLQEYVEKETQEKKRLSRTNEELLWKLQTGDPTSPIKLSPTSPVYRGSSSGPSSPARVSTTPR

zinc finger protein 296 = biological target: T9, zinc finger protein 296 (human, UniProt Q8WUU4 1-475)
T9 construct: on protein array; also called ZNF296
T9 sequence: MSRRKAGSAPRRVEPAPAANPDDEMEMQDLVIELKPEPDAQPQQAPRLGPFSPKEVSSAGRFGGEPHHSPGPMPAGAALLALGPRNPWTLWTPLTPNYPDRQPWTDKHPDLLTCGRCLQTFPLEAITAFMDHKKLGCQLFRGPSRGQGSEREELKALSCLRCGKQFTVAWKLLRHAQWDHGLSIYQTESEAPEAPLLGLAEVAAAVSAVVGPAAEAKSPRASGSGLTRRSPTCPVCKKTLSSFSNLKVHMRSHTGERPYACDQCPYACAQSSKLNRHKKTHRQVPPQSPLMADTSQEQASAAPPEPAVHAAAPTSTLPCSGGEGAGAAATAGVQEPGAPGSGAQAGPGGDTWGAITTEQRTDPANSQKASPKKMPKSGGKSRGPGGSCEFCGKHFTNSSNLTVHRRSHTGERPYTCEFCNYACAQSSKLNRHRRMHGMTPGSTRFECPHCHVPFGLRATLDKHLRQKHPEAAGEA

[7] = biological target: phosphodiesterase 5A, transcript variant 1 (human, UniProt O76074 1-875)
Bcl2 like 1 = biological target: T10, Bcl2 like 1 (human, UniProt Q07817 1-233)
T10 construct: on protein array; also called BCL2L1

[8] = biological target: T11, SAS-6 centriolar assembly protein, transcript variant 2 (human, UniProt Q6UVJ0 168-657)
T11 construct: on protein array; also called SASS6
T11 sequence: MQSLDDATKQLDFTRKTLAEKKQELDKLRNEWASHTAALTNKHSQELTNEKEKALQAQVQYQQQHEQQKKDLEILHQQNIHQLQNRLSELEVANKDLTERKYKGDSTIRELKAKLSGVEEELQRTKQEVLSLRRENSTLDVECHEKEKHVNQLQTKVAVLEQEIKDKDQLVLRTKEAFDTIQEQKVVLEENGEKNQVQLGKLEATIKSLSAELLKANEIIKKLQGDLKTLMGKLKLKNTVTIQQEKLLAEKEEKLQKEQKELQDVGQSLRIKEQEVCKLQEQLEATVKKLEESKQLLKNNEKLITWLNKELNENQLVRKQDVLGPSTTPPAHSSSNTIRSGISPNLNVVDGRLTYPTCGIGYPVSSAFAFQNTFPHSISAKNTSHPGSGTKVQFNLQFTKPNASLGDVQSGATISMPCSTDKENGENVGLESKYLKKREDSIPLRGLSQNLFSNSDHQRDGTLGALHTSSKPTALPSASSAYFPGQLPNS

[9] = biological target: T12, arginine and glutamate rich 1 (human, UniProt Q9NWB6 1-273)
T12 construct: on protein array; also called ARGLU1
T12 sequence: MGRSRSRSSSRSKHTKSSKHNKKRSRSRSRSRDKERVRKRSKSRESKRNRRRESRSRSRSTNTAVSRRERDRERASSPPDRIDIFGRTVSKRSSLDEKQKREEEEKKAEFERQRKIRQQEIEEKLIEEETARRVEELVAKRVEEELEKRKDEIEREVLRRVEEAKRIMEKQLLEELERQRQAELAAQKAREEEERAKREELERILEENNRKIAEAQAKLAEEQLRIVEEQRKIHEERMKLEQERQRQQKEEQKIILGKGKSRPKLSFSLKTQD

T3 sequence (Q6VN20 2-620 limits assumed, change not shown): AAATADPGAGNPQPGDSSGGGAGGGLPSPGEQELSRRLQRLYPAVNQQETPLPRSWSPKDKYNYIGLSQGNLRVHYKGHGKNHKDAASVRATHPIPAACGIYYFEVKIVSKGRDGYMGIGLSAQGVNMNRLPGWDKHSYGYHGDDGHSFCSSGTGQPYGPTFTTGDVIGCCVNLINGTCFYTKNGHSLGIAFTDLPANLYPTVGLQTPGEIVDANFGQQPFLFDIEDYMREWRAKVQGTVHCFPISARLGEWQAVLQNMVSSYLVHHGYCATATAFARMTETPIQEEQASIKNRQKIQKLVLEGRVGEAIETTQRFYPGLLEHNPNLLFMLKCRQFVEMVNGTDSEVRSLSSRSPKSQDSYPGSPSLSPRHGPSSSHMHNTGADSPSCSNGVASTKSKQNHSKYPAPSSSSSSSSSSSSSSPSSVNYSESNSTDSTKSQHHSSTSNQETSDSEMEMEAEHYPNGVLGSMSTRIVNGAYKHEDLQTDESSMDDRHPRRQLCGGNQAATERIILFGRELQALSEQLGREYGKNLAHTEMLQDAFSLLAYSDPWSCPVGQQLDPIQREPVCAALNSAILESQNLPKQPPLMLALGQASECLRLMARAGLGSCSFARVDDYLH
T6 sequence (Q9UMX0 other isoform, or with tags, fused parts or gaps mutant limits assumed): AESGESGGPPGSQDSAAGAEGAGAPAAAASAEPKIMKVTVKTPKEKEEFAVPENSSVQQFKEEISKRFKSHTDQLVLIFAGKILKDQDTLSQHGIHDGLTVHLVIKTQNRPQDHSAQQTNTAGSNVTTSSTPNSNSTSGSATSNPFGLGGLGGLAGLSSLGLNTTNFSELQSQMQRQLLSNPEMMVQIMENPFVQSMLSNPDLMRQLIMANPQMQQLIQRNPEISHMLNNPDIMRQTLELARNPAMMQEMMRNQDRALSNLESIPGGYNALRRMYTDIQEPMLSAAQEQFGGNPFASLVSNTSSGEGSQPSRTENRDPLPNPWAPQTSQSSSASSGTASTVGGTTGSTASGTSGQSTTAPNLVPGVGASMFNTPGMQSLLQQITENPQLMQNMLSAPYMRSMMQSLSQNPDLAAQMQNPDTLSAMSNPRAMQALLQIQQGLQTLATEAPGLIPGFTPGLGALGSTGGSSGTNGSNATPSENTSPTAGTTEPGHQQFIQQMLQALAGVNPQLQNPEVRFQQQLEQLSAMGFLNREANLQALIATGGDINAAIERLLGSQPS
T4 sequence (Q9UHD9 2-624 limits assumed): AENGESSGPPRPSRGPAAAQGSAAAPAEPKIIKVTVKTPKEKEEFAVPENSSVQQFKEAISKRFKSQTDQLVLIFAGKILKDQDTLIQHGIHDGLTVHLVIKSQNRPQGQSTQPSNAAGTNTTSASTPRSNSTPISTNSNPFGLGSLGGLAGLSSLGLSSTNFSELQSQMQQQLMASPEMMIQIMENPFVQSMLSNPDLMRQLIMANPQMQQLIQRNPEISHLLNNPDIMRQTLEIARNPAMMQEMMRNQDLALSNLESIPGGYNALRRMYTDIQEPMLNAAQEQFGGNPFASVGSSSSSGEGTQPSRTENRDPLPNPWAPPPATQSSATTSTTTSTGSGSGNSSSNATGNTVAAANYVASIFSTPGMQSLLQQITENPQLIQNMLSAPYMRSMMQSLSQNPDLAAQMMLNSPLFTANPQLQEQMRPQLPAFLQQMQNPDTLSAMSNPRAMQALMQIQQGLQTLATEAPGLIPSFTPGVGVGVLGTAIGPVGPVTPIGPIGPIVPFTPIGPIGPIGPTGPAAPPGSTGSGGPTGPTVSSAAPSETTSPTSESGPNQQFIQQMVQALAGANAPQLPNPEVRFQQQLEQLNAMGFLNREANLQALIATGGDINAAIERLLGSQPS
T10 sequence (Q07817 whole entry): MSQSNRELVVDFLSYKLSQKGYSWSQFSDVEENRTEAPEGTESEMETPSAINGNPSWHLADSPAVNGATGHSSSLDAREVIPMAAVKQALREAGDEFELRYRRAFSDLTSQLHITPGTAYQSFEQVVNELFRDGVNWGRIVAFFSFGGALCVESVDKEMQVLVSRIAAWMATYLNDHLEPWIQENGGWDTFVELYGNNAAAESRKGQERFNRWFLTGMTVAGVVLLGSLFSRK

B1: TLUS1006 (antibody, V domains shown)
VH: PVHLVQSGAEVRKPGSSVKVSCMASGGSFNTYAVNWVRQAPGQGLEWMGGIIPVFGTTNYAPRFQGRVTITADESTSTVYMELTSLTSEDTAVYYCARDRDSGYERNCLDPWGQGTLVTVSS
VL: DIVMTQSPDSLAVTLGERATINCRSSQTVLYDSNNKNYLAWYQQKPGQPPKLLIYWASIRESGVPDRFSGSGSGTDFTLTINTLQAEDVAIYFCQQYFTTPRTFGQGTKVEIKR
notes: VH/VL tied via antigen in summary, not by name in this stretch
[1]
  binding result: binds
[2]
  binding result: binds

B2: TMEL1017 (antibody, V domains shown)
VH: EVQLVESGGGLVKPGGSLRLSCAASGFTFSNYNMNWVRQAPGKGLEWVSSISSSSSYIYYADSVKGRFTISRDNAKNSLYLQMNSLRAEDTAVYYCARDALDFDWLLSAGGFDYWGQGTLVTVSS
VL: ASALTQPASVSGSPGQSITISCTGTSSDVGGYNYVSWYQQHPGKAPKLMIYEVSNRPSGVSNRFSGSKSGNTASLTISGLQAEDEADYYCSSYTSSSTLVFGGGTKLTVLG
notes: as for B1
[3]
  binding result: binds

B3: TMEL1018 (antibody, V domains shown)
VH: PLQLQESGPGLVKPSETLSLTCTVSGGSISSSSYYWGWIRQPPGKGLEWIGSIYYSGSTYYNPSLKSRVTISVDTSKNQFSLKLSSVTAADTAVYSCARLLVGGAFDIWGQGTMVTVSS
VL: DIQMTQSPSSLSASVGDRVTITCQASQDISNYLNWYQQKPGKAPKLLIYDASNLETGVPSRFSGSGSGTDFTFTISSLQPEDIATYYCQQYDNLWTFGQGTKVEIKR
notes: as for B1
Ubiquilin 2
  binding result: binds
Ubiquilin 3
  binding result: binds
[4]
  binding result: binds

B4: TMEL1020 (antibody, V domains shown)
VH: QVHLVQSGAEVKKPGASVKVSCKASGYTFTNYFIHWVRQAPGQGPEWMGVINPSFGSTTYAQKLQGRVTMTRETSTSTVYMELSSLRSEDTAVYYCARESLDSASYSTIAHWGQGTLVTVSS
VL: EIVLAQSPGTLYLSPGERATLSCRASQSVRGNYLAWYQQRPGQAPRLLIYGASSRATGIPDRFGGSGSGTDFTLTITRLLPEDFAVYYCHQYGSSPRTFGQGTKVEIKR
notes: as for B1
[5]
  binding result: binds

B5: TMEL1027 (antibody, V domains shown)
VH: QVQLVQSGAEVKKPGASVKVSCKASGYTFTVYYMHWVRQAPGQGLEWMGRINPNSGGTNYAQKFQGRVTMTRDTSISTAYMELSRLTSDDTAVYYCARVVVVGTDYGMDVWGQGTTVTVSS
VL: VSSELTQDPAVSVALGQTVRITCQGDSLRSYYASWYQQRPGQAPVLVIYGKNNRPSGIPDRFSGSSSGNTASLTITGAQAEDEADYYCNSRDSSGNHVFGTGTKVTVLG
notes: as for B1
[6]
  binding result: binds

B6: TMEL1028 (antibody, V domains shown)
VH: QVQLVQSGAEVKKPGASVKVSCKASGYTFTSYGISWVRQAPGQGLEWMGWISAYNGNTNYAQKLQGRVTMTTDTSTSTAYMELRSLTSDDTAVYYCARDQGLERANWFDPWGQGTLVTVSS
VL: not shown
notes: as for B1
Zinc finger protein 296
  binding result: binds
[7]
  binding result: binds

B7: TMEL1030 (antibody, V domains shown)
VH: QVQLQESGPGLVKPSGTLSLTCAVSGGSISSSNCWSWVRQPPGKGLEWLGEICHSGSTSYNPSLKSRVTISVDKSKNQFSLKLRSVTAADTAVYYCARESPLTVVFDYWGQGTLVTVSS
VL: DIQMTQSPSSLSASVGDRVTITCRASQGIRNDLGWFQQKPGKAPKRLIYAASNLPSGVSSRFSGSGSGTEFTLTISSLQPEDFATYYCLQHNNYPLTFGQGTKVEFKR
notes: as for B1
Bcl2 like 1
  binding result: binds

B8: TMEL1031 (antibody, V domains shown)
VH: EVQLVESGGGLVQPGGSLRLSCAASGFTVSSNYMSWVRQAPGKGLEWVSVIYSGGSTYYADSVKGRFTISRDNSKNTLSLQMNSLRAEDTAVYYCARESSAAGYDYWGQGTLVTVSS
VL: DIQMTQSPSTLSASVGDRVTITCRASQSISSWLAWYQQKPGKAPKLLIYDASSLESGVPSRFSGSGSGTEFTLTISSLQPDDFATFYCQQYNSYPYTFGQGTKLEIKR
notes: as for B1
[8]
  binding result: binds
[9]
  binding result: binds
